Measured values taken from patent US20190382481A1 (Janssen / Centocor, published 2019).
Positions count from the first letter of the chain named.

B1: C3CB90 (bispecific antibody, human IgG4 S228P, lambda, F234A L235A)
heavy 1: not shown
light 1: SYELTQPPSVSVSPGQTASITCSGDELGDMYACWYQQKPGQSPLVVIYQDSKRPSGIPERFSGSNSGNTATLTISGTQAMDEAAYYCQTWDTRIAVFGGGTNLTVLGQPKAAPSVTLFPPSSEELQANKATLVCLISDFYPGAVTVAWKADSSPVKAGVETTTPSKQSNNKYAASSYLSLTPEQWKSHRSYSCQVTHEGSTVEKTVAPTECS
heavy 2: EVQLVESGGGLVQPGGSLRLSCAASGFTFNTYAMNWVRQAPGKGLEWVARIRSKYNNYATYYAASVKGRFTISRDDSKNSLYLQMNSLKTEDTAVYYCARHGNFGNSYVSWFAYWGQGTLVTVSSASTKGPSVFPLAPCSRSTSESTAALGCLVKDYFPEPVTVSWNSGALTSGVHTFPAVLQSSGLYSLSSVVTVPSSSLGTKTYTCNVDHKPSNTKVDKRVESKYGPPCPPCPAPEAAGGPSVFLFPPKPKDTLMISRTPEVTCVVVDVSQEDPEVQFNWYVDGVEVHNAKTKPREEQFNSTYRVVSVLTVLHQDWLNGKEYKCKVSNKGLPSSIEKTISKAKGQPREPQVYTLPPSQEEMTKNQVSLTCLVKGFYPSDIAVEWESNGQPENNYKTTPPVLDSDGSFLLYSKLTVDKSRWQEGNVFSCSVMHEALHNHYTQKSLSLSLGK
light 2: QTVVTQEPSLTVSPGGTVTLTCRSSTGAVTTSNYANWVQQKPGQAPRGLIGGTNKRAPGTPARFSGSLLGGKAALTLSGVQPEDEAEYYCALWYSNLWVFGGGTKLTVLGQPKAAPSVTLFPPSSEELQANKATLVCLISDFYPGAVTVAWKADSSPVKAGVETTTPSKQSNNKYAASSYLSLTPEQWKSHRSYSCQVTHEGSTVEKTVAPTECS
B2: C3CB91 (bispecific antibody, human IgG4 S228P, lambda, F234A L235A)
heavy 1: not shown
light 1: SYELTQPPSVSVSPGQTASITCSGDNLGNEHVCWYHQKPGQSPVLVIYQNNKRPSGIPERFSGSNSGNTATLSISGTQATDEADYYCQAWDSTTAVFGGGTKLTVLGQPKAAPSVTLFPPSSEELQANKATLVCLISDFYPGAVTVAWKADSSPVKAGVETTTPSKQSNNKYAASSYLSLTPEQWKSHRSYSCQVTHEGSTVEKTVAPTECS
heavy 2: B1 heavy 2
light 2: B1 light 2
B3: C3CB11 (bispecific antibody, human IgG4 S228P, lambda, F234A L235A)
heavy 1: not shown
light 1: SYELTQPPSVSVSPGQTASITCSGDKLGDKYACWYQQKPGQSPVLVIYQDGKRPSGIPERFSGSNFGNKATLTISGTQAMDEADYYCQAWDRNTVVFGGGTKLTVLGQPKAAPSVTLFPPSSEELQANKATLVCLISDFYPGAVTVAWKADSSPVKAGVETTTPSKQSNNKYAASSYLSLTPEQWKSHRSYSCQVTHEGSTVEKTVAPTECS
heavy 2: B1 heavy 2
light 2: B1 light 2
B4: C3CB103 (bispecific antibody, human IgG4 S228P, lambda, F234A L235A)
heavy 1: not shown
light 1: B3 light 1
heavy 2: QVQLQQSGPRLVRPSQTLSLTCAISGDSVFNNNAAWSWIRQSPSRGLEWLGRTYYRSKWLYDYAVSVKSRITVNPDTSRNQFTLQLNSVTPEDTALYYCARGYSSSFDYWGQGTLVTVSSASTKGPSVFPLAPCSRSTSESTAALGCLVKDYFPEPVTVSWNSGALTSGVHTFPAVLQSSGLYSLSSVVTVPSSSLGTKTYTCNVDHKPSNTKVDKRVESKYGPPCPPCPAPEAAGGPSVFLFPPKPKDTLMISRTPEVTCVVVDVSQEDPEVQFNWYVDGVEVHNAKTKPREEQFNSTYRVVSVLTVLHQDWLNGKEYKCKVSNKGLPSSIEKTISKAKGQPREPQVYTLPPSQEEMTKNQVSLTCLVKGFYPSDIAVEWESNGQPENNYKTTPPVLDSDGSFLLYSKLTVDKSRWQEGNVFSCSVMHEALHNHYTQKSLSLSLGK
light 2: QSALTQPASVSGSPGQSITISCTGTSSNIGTYKFVSWYQQHPDKAPKVLLYEVSKRPSGVSSRFSGSKSGNTASLTISGLQAEDQADYHCVSYAGSGTLLFGGGTKLTVLGQPKAAPSVTLFPPSSEELQANKATLVCLISDFYPGAVTVAWKADSSPVKAGVETTTPSKQSNNKYAASSYLSLTPEQWKSHRSYSCQVTHEGSTVEKTVAPTECS
B5: C3CB102 (bispecific antibody, human IgG4 S228P, lambda, F234A L235A)
heavy 1: not shown
light 1: B3 light 1 with D25N, D29A, Y31F, C33S, G51N, F66S, K69T, M80V, R92S, N93S
heavy 2: B4 heavy 2
light 2: B4 light 2

Tests used:
[1] = target: T1, human CD33 (human, UniProt P20138 18-364); experiment: cell-based or functional assay
T1 sequence (P20138 18-364 limits assumed): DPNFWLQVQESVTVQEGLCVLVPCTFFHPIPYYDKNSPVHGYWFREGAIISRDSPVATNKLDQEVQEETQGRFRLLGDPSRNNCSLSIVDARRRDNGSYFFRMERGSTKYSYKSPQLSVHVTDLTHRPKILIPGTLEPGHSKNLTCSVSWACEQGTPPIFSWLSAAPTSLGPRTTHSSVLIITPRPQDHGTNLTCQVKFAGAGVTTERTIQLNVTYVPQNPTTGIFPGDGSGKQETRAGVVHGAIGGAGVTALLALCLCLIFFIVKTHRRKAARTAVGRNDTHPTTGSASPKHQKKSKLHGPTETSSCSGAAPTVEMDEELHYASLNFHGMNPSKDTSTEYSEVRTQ

[2] = target: T1, human CD33; experiment: cell-based or functional assay; remark: listed apart in the source

Binder	Cytotoxicity EC50 (nM), T-cell mediated cytotoxicity of MOLM-13 [1]	Primary AML Cell Killing EC50 (nM), ex vivo AML patient whole blood [2]
B1	10.6 nM	–
B2	0.35 nM	–
B3	–	3.96 nM
B4	–	4.19 nM
B5	–	4.97 nM
